This series deals with the molecule itself. As to the kind of experiment: SEC.

B1: prion protein (PrP) from 263K-infected Syrian hamster brain (natural protein)
chain: not shown
notes: also called PrP^Sc; 263K PrP^Sc
Regarding B1, the “stoichiometry N” value is approximately 3.

These data come from PMC5589264, “Reversible unfolding of infectious prion assemblies reveals the existence of an oligomeric elementary brick” (PLoS Pathogens, 2017).
